Measured values published in publication PMC6208366.

Target: IANBD-labeled Hsp90 M362C (human)
Experiment: stopped-flow fluorescence; IANBD-labeled Hsp90 M362C (1 µM) mixed with equal volumes of FKBP51, FK1-FK2, FK2-TPR or buffer, pseudo-first-order, 37 °C, 25 mM sodium phosphate/300 mM NaCl pH 7.2; rates as fluorescence increase at 20 s

ΔF (rate of Hsp90 binding, fluorescence increase): 0.0021 s⁻¹
B1: full-length human FKBP51 (natural protein)
chain: MTTDEGAKNNEESPTATVAEQGEDITSKKDRGVLKIVKRVGNGEETPMIGDKVYVHYKGKLSNGKKFDSSHDRNEPFVFSLGKGQVIKAWDIGVATMKKGEICHLLCKPEYAYGSAGSLPKIPSNATLFFEIELLDFKGEDLFEDGGIIRRTKRKGEGYSNPNEGATVEIHLEGRCGGRMFDCRDVAFTVGEGEDHDIPIGIDKALEKMQREEQCILYLGPRYGFGEAGKPKFGIEPNAELIYEVTLKSFEKAKESWEMDTKEKLEQAAIVKEKGTVYFKGGKYMQAVIQYGKIVSWLEMEYGLSEKESKASESFLLAAFLNLAMCYLKLREYTKAVECCDKALGLDSANEKGLYRRGEAQLLMNEFESAKGDFEKVLEVNPQNKAARLQISMCQKKAKEHNERDRRIYANMFKKFAEQDAKEEANKAMGKKTSEGVTNEKGTDSQAMEEEKPEGHV
